From article PMC6471494, “Functional Mechanisms Underlying the Antimicrobial Activity of the Oryza sativa Trx-like Protein” (International Journal of Molecular Sciences, 2019)

Target: the molecule itself
Experiment: negative-stain transmission electron microscopy; SEC fractions a, b and c of OsTDX on glow-discharged carbon-coated copper grids, 1% uranyl acetate, FEI Tecnai 20 at 200 kV

B1: Oryza sativa Tetratricopeptide Domain-containing thioredoxin (OsTDX) protein (natural protein, UniProt Q6ES52 1-317, looked up)
chain: MATAGASSFEDEIMESDIELEGEAVEPDNDPPQKMGDPSVEVSDEKRDQAQLCKNKGVDAFSEGKLDEAIEHLTEAIVLNPTSAIAYATRAVIFVKSKKPNAAIRDADAALKINPDSAKGYKSRGMAKAMLGKWEEAAQDLRMAAKLDYDEEIGAELKKVEPNVLKIEEHRKKYERLRKERDIKKAEMEKQRKHAEEVSAASAALKDGDVIAIHSSSELDTKLKAASSLSRLVVLYFTAAWCGPCRFIGPVCKSLAEKHRNVVFLKVDIDELNSVAYRWNVSSVPSFFFVRNGKEIDKVVGADKNGLERKVAQHGSS
notes: OsTDX, Oryza sativa TPR repeat-containing thioredoxin; full-length cDNA amplified from a rice leaf cDNA library and cloned into pGEX-2T; predicted MW ~35 kDa; also called rice Trx-like protein; recombinant OsTDX; source: E. coli BL21(DE3), purified (glutathione-agarose, GST cleaved by thrombin, FPLC SEC 650 column)
stoichiometry N: 2
